Earlier results on one substance are cited in article PMC6277024.

In the series the target is WRESAI hexapeptide.

As for Tip-1 PDZ (from UniProt O14907), the Kd is 0.01 µM.

The term Kd denotes the constant that tells how readily two partners part at equilibrium.
